{
  "source": "patent US20110217237A1",
  "about": "(AbbVie / Abbott, published 2011)",
  "key": {"[1]": {"target": "T1, cynomolgus monkey DLL4 extracellular domain (cynomolgus monkey)", "T1 construct": "extracellular domain; also called cynoDLL4 ECD; Cyno DLL4", "assay": "binding ELISA"}, "[2]": {"target": "T2, mouse DLL4 extracellular domain (mouse, UniProt Q9JI71 27-532)", "T2 construct": "extracellular domain; also called muDLL4 ECD; murine DLL4", "T2 sequence (Q9JI71 27-532)": "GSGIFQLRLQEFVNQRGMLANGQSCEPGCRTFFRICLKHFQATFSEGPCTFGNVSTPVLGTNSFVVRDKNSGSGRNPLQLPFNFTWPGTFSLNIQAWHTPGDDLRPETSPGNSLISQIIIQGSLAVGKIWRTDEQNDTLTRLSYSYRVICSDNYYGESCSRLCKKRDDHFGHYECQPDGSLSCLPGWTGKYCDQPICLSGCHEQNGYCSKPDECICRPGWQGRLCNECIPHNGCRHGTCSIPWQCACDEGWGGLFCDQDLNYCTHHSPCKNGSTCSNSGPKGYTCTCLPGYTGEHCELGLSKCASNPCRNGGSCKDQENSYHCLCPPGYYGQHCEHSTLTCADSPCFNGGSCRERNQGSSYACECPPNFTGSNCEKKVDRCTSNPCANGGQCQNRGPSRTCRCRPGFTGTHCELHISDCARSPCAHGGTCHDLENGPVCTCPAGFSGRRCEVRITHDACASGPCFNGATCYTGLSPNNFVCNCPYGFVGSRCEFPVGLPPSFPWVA", "assay": "binding ELISA"}, "[3]": {"target": "T3, human DLL4 extracellular domain (human, UniProt Q9NR61 27-529)", "T3 construct": "purified recombinant ECD; biotin-labelled or 6xHis-tagged depending on the assay; also called huDLL4 ECD; hu DLL4 ECD", "T3 sequence (Q9NR61 27-529 limits assumed)": "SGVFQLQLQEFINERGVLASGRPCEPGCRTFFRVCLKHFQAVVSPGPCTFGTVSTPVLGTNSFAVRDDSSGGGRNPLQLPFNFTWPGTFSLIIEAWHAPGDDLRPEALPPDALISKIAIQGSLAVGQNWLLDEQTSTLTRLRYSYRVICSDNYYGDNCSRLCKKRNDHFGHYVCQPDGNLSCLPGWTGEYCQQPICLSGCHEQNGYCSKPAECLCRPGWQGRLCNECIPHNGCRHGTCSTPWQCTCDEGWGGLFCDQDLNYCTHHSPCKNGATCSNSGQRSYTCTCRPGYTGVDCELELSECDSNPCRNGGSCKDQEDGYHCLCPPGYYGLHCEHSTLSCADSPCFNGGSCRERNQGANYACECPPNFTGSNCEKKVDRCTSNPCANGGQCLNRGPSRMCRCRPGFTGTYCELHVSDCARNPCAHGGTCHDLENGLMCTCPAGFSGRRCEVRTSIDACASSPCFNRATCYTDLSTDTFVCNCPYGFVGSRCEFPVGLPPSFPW", "assay": "binding ELISA"}, "[4]": {"target": "T4, human DLL4, full length, on cells (human, UniProt Q9NR61 27-685)", "T4 construct": "also called huDLL4 cells; human DLL4-293G", "T4 sequence (Q9NR61 27-685 limits assumed)": "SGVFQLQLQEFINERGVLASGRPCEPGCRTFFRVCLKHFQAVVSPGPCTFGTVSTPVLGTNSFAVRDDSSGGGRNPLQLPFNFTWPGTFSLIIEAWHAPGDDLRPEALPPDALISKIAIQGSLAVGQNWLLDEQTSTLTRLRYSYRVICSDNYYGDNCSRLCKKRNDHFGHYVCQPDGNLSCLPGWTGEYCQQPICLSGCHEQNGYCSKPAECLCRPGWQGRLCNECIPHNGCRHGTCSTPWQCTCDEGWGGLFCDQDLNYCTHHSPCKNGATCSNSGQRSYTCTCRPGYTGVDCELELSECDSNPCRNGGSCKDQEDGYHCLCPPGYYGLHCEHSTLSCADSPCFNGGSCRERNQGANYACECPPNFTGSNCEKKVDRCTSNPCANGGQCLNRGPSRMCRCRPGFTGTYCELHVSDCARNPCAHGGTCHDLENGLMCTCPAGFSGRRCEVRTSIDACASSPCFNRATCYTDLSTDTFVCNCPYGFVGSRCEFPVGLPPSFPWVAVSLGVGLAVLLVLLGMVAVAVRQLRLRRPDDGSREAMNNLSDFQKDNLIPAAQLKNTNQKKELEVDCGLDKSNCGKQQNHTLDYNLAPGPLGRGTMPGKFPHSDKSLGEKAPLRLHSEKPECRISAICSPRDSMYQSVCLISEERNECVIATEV", "assay": "competition FACS: huNotch-1 to DLL4 cells", "protocol": "(§1) Notch blocking assay: Briefly, stable cell lines overexpressing cell-surface DLL4 were harvested from tissue culture flasks and re-suspended in phosphate buffered saline (PBS) containing 1% bovine serum albumin and 1 mM CaCl₂ (FACS buffer). HEK293G-DLL4 cells were dispensed into 96-well plate (v-bottom) at 1.5×10⁵ cells/well in FACS buffer. After spinning down cells and discarding the supernatant, 50 μL of purified IgG with appropriate dilution were added to each well, and incubated on ice at 4° C. for 60 minutes, followed by addition of 50 μL/well of Notch1-biotin at 0.2 μg/mL for human DLL4-293G or 2.0 μg/mL for mouse DLL4-293G (1.0 or 0.1 μg/mL final) for an additional 1 hour incubation ice at 4° C. After washing the cells two times with FACS buffer, 50 μL of R-phycoerythrin-conjugated streptavidin (1:150 dilution in FACS buffer) (Jackson ImmunoResearch, West Grove, Pa., Cat.#016-110-084) were added. Following an incubation on ice (4° C., 60 minutes), cells were washed three times and resuspended in FACS buffer. Fluorescence was measured using a Becton Dickinson FACSCalibur-HTS (Becton Dickinson, San Jose, Calif.). Data were analyzed using Graphpad Prism software, and IC₅₀ values were reported as the concentration of antibody to achieve 50% reduction of Notch1 bound to DLL4 expressing cells."}, "[5]": {"target": "T5, mouse DLL4 on cells (mouse, UniProt Q9JI71 27-686)", "T5 construct": "whole, on cells; also called mouse DLL4-293G; mu DLL4 cells", "T5 sequence (Q9JI71 27-686)": "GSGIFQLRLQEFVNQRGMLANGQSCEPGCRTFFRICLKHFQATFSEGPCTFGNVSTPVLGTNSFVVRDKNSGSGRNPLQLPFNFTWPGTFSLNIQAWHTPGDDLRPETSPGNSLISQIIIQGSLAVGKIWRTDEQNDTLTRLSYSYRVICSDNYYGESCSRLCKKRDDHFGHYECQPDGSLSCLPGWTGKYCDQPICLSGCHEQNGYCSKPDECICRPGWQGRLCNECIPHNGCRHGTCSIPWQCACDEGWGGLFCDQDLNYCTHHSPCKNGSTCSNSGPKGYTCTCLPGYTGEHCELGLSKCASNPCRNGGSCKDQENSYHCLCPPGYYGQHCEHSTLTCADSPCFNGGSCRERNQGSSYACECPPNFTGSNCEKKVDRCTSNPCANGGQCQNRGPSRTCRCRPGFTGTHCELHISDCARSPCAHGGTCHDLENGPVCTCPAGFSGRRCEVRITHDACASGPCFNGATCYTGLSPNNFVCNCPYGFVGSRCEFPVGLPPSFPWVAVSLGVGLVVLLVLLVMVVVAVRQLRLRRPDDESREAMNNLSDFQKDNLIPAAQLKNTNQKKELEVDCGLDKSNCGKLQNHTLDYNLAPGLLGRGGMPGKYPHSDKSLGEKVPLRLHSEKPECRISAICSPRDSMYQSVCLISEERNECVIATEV", "assay": "competition FACS: huNotch-1 to DLL4 cells", "protocol": "as §1"}, "[6]": {"target": "T4, human DLL4, full length, on cells", "assay": "FACS, DLL4 cells"}, "[7]": {"target": "T5, mouse DLL4 on cells", "assay": "FACS, DLL4 cells"}, "[8]": {"target": "T4, human DLL4, full length, on cells", "assay": "FACS, DLL4 cells", "remark": "listed apart in the source"}, "[9]": {"target": "T5, mouse DLL4 on cells", "assay": "FACS, DLL4 cells", "remark": "listed apart in the source"}, "[10]": {"target": "T4, human DLL4, full length, on cells", "assay": "cell-based or functional assay"}, "[11]": {"target": "T2, mouse DLL4 extracellular domain", "assay": "SPR (Biacore)"}, "[12]": {"target": "T3, human DLL4 extracellular domain", "assay": "SPR (Biacore)"}, "[13]": {"target": "T2, mouse DLL4 extracellular domain", "assay": "competition ELISA vs Notch-1"}, "[14]": {"target": "T3, human DLL4 extracellular domain", "assay": "competition ELISA vs Notch-1"}},
  "note": "Like-named read-outs stand apart in the source and are kept apart here.",
  "data": [
    {"binder": "1A11 chimeric antibody (antibody, human IgG1, V domains shown, also called Chimera of 1A11; 1A11 (chimera)) VH: EVQLVESGGGLVQPGRSMKLSCAASGFTFRNFPMAWVRQAPTRGLEWVATISSSDGTTYYRDSVKGRFTISRDNAKSTLYLQVNSLRSEDTATYYCSRGYYNSPFAYWGQGTLVTVSS VL: DIQMTQSPASLSASLGETVTIECRASEDIYSNLAWYQQKPGNSPQLLIFDTNNLADGVPSRFSGSGSGTQSSLKINSLQSEDVASYFCQQYNNYPPTFGGGTKLELKR", "values": [
      {"measurement": "EC50", "setting": "[1]", "value": 0.33, "unit": "nM"},
      {"measurement": "EC50", "setting": "[2]", "value": 0.3, "unit": "nM"},
      {"measurement": "EC50", "setting": "[3]", "value": 0.2, "unit": "nM"},
      {"measurement": "IC50", "setting": "[4]", "value": 2.34, "unit": "nM"},
      {"measurement": "IC50", "setting": "[5]", "value": 0.682, "unit": "nM"},
      {"measurement": "EC50", "setting": "[6]", "value": 6.29, "unit": "nM"},
      {"measurement": "EC50", "setting": "[7]", "value": 0.53, "unit": "nM"},
      {"measurement": "EC50", "setting": "[8]", "value": 19.6, "unit": "nM"},
      {"measurement": "EC50", "setting": "[9]", "value": 0.74, "unit": "nM"},
      {"measurement": "Reporter Assay (EC50, nM)", "setting": "[10]", "value": 5.98, "unit": "nM"},
      {"measurement": "Kd", "setting": "[11]", "value": 24, "unit": "nM"},
      {"measurement": "Kd", "setting": "[12]", "value": 9, "unit": "nM"},
      {"measurement": "IC50", "setting": "[13]", "value": 3.5, "unit": "nM"},
      {"measurement": "IC50", "setting": "[14]", "value": 1.8, "unit": "nM"}
    ]}
  ]
}
